The record followed here is patent publication US20110123523A1 (MERRIMACK PHARMACEUTICALS, published 2011).

Where two headings read alike, the source gives them in different places.

The target in assay [1] is T1, EGFR (ErbB1) on ADRr cells (human, UniProt P00533 25-1210).
T1 construct: whole, on cells
Nature of the assay: flow cytometry on ADRr cells, biotinylated BTC + streptavidin-PE; BTC concentration not printed on the sheet (legend paragraph 39 names 10 nM). Background: Flow cytometry measures light scatter and fluorescence of single cells or particles in a stream.
Procedure: (§1) Cells were then washed twice with 500 μl BD stain buffer and incubated with 100 μl of a 1:200 dilution of streptavidin-PE (PE=phycoerythrin) (Invitrogen) in BD stain buffer for 45 minutes. Finally, cells were washed twice, resuspended in 300 μl of BD stain buffer and analyzed in a FACScalibur flow cytometer. […] To assess background staining from the streptavidin-PE conjugate, cells were incubated with 100 μl of a 1:200 dilution of streptavidin-PE only for 45 minutes.

In assay [2] the target is T2, ErbB3 receptor, wild type full length, on cells (MALME-3M, ADRr/AdrR, CHO K1 transfectants) (human, UniProt P21860 20-1342).
T2 construct: whole, on cells; also called HER3
Nature of the assay: flow cytometry on MALME-3M cells (ErbB1 negative, ErbB3 positive), biotinylated BTC + streptavidin-PE.
Procedure: as §1

In assay [3] the target is T3, ErbB3 as used in the surface plasmon resonance (Flexchip) and KinExA assays (human, UniProt P21860 20-643, limits assumed). The experiment in a line: Kinetic Exclusion Assay (KinExA); KinExA, not Flexchip SPR.
Assay [4] addresses T4, full-length ErbB3 Y104A mutant on CHO K1 cells (human, UniProt P21860 20-1342).
T4 construct: whole, on cells; Numbering as for m15
The experiment in a line: FACS on CHO K1 cells stably expressing full-length ErbB3 Y104A; Ab #6 directly labelled with Alexa 488 (FL1).
Source text: (§2) CHO K1 cells expressing wild type full-length ErbB3 served as a positive control.

For assay [5], the target named is T3, ErbB3 as used in the surface plasmon …. Nature of the assay: Kinetic Exclusion Assay (KinExA); KinExA. Background: Kinetic exclusion samples the free partner from a solution-phase mixture.
Assay [6] has as its target T2, ErbB3 receptor, wild type full length, …. Nature of the assay: cell binding assay, flow cytometry on MALME-3M cells, one-site binding fit.
Procedure: (§3) The concentrations of the diluted antibody ranged from 200 nM to 0.4 nM.
(§4) Aliquoted cells in the 96-well plate were incubated with the protein dilutions for 30 minutes at room temperature on a platform shaker and washed 3 times with 300 μl BD stain buffer. […] Finally, cells were washed twice, pelleted and resuspended in 250 μl BD stain buffer+0.5 μg/ml propidium iodide. Analysis of 10,000 cells was done in a FACScalibur flow cytometer using the FL4 channel. MFI values and the corresponding concentrations of the anti-ErbB3-antibodies were plotted on the y-axis and x-axis, respectively. The KD of the molecule was determined by GraphPad Prism using the one-site binding model for a non-linear regression curve.
(§5) The KD value was calculated based on the formula Y=Bmax*X/KD+X (Bmax=fluorescence at saturation. X=antibody concentration. Y=degree of binding).
For assay [7] the target is unchanged. The experiment in a line: cell-based or functional assay.
Assay [8] has the same target. Nature of the assay: flow cytometry on MALME-3M cells, Alexa 647 goat anti-human IgG, one-site binding fit.
Procedure: as §3, §4, §5
Assay [9] has as its target T5, full-length ErbB3 L102A mutant on CHO K1 cells (human, UniProt P21860 20-1342).
T5 construct: whole, on cells; Numbering as for m15
Nature of the assay: FACS on CHO K1 cells stably expressing full-length ErbB3 L102A; Ab #6 directly labelled with Alexa 488 (FL1).
Source text: as §2

For assay [10], the target named is T3, ErbB3 as used in the surface plasmon …. The experiment in a line: surface plasmon resonance (Flexchip assay); Flexchip SPR, not KinExA.
Assay [11] concerns the target T6, full-length ErbB3 D93A mutant on CHO K1 cells (human, UniProt P21860 20-1342).
T6 construct: whole, on cells
Nature of the assay: FACS on CHO K1 cells stably expressing full-length ErbB3 D93A; Ab #6 directly labelled with Alexa 488 (FL1).
Source text: as §2

Assay [12] addresses bovine serum albumin (BSA), unrelated protein control (bovine, UniProt P02769 25-607). Nature of the assay: ELISA on plate-coated protein, HRP anti-human IgG, chemiluminescence. In general terms: An ELISA detects its analyte on a solid surface through an enzyme-linked reagent.
Procedure: (§6) Specifically, 96-well Nunc Maxisorb plates were coated with 50 μl of 5 μg/ml protein (recombinant human ErbB3, recombinant human EGFR or unrelated protein (BSA)) and incubated overnight at room temperature. The next morning, plates were washed 3 times with 1000 μl/well of PBST (0.05% Tween-20) in the BioTek plate washer. The wells were blocked for 1 hr at room temperature with 2% BSA in PBS. The plates were washed 3 times with 1000 μl/well of PBST (0.05% Tween-20) in the BioTek plate washer. […] All samples were run in duplicate and incubated for 2 hrs at 4° C. on a plate shaker. The plates were washed plates 3 times with 1000 μl/well of PBST (0.05% Tween-20) in the BioTek plate washer. 50 μl of human IgG detection antibody (HRP conjugated (Bethyl Inc; 1:75000 dilution in 2% BSA, PBST)) was added and the plates were incubated for 1 hr at room temperature. The plates were washed plate 3 times with 1000 μl/well of PBST (0.05% Tween-20) in the BioTek plate washer. 50 μL of Supersignal Pico ELISA substrate was added and the plate was read on the Fusion plate reader. The data was analyzed using the EXCEL program. Duplicate samples were averaged and the error bars represent the standard deviation between the two replicates.
A further assay deals with T7, TGF-α (control in ELISA) (UniProt P01135 40-89).
T7 construct: also called transforming growth factor-α
The description is as above.

Assay [13] addresses recombinant human EGFR (coated on ELISA plate) (human, UniProt P00533 25-645, limits assumed). Described as above.
Procedure: as §6
The target in assay [14] is T2, ErbB3 receptor, wild type full length, …. Nature of the assay: flow cytometry, biotinylated heregulin EGF + streptavidin-PE; cells MALME3 according to the sheet's title and legend paragraph 42 (Example 10 names ADRr cells).
Procedure: Cells were then washed twice with 500 μl BD stain buffer and incubated with 100 μl of a 1:200 dilution of streptavidin-PE (PE=phycoerythrin) (Invitrogen) in BD stain buffer for 45 minutes. Finally, cells were washed twice, resuspended in 300 μl of BD stain buffer and analyzed in a FACScalibur flow cytometer.
For assay [15], the target named is T3, ErbB3 as used in the surface plasmon …. Nature of the assay: surface plasmon resonance (Flexchip assay); Flexchip SPR.
The target of assay [16] is T2, ErbB3 receptor, wild type full length, …. Nature of the assay: flow cytometry on MALME-3M cells, Alexa 647 goat anti-human IgG, one-site binding fit. The source holds these as a separate data set.
Procedure: as §3, §4, §5
Assay [17] has the same target. The experiment in a line: flow cytometry on MALME-3M cells; Fab at about 500 nM; goat anti-human Alexa 647 secondary antibody.

bovine serum albumin (BSA), unrelated protein control, sequence (P02769 25-607 limits assumed): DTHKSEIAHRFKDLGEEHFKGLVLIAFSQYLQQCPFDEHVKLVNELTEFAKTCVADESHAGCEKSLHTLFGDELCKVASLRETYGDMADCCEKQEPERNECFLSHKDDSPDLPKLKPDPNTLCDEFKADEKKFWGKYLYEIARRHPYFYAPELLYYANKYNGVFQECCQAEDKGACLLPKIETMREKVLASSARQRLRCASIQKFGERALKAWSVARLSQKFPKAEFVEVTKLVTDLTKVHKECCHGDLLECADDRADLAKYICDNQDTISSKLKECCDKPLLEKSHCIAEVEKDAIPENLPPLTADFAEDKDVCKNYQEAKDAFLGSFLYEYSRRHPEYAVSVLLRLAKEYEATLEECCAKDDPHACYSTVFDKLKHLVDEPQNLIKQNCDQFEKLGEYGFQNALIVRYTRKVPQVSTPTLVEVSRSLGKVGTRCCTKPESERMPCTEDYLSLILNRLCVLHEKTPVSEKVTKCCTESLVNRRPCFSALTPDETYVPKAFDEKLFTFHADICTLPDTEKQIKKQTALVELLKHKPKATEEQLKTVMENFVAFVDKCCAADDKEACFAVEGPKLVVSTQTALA
Procedure for TGF-α (control in ELISA): as §6

B1: betacellulin (BTC) (ligand, UniProt P35070 32-111, looked up)
chain: DGNSTRSPETNGLLCGDPEENCAATTTQSKRKGHFSRCPKQYKHYCIKGRCRFVVAEQTPSCVCDEGYIGARCERVDLFY
modifications: biotinylated (Example 7)
notes: also called biotinylated BTC
Turning to B1, the figures for the binding result in assay [1] and in assay [2] were “binds” and “no binding (tested: 500 nM)”, respectively.

B2: Antibody #6 (Ab #6), human anti-ErbB3 antibody (antibody, V domains shown)
VH: EVQLLESGGGLVQPGGSLRLSCAASGFTFSHYVMAWVRQAPGKGLEWVSSISSSGGWTLYADSVKGRFTISRDNSKNTLYLQMNSLRAEDTAVYYCTRGLKMATIFDYWGQGTLVTVSS
VL: QSALTQPASVSGSPGQSITISCTGTSSDVGSYNVVSWYQQHPGKAPKLIIYEVSQRPSGVSNRFSGSKSGNTASLTISGLQTEDEADYYCCSYAGSSIFVIFGGGTKVTVL
notes: also called antibody number 6; MM121
Broadly, the Kd is the concentration at which binding is half-saturated. A lower Kd goes with tighter binding. Broadly, the koff is a measure of how fast the partners let go of each other. By kon is commonly meant the rate constant with which the complex forms. Read a low kon as slow association. For orientation: EC50 (read off the curve) means the concentration that produces a half-maximal response. The low end stands for a more potent agent, the high end for a less potent agent. Consider B2, for which the Kd is 0.769 nM in assay [3], around 4 nM in assay [6] and around 4 nM in [10]. For the same molecule, the binding result in assay [4], in [9] and in [11] was “no binding” in each case. Moreover, in assay [5], the off-rate constant (koff) amounted to 0.00011 s⁻¹. The molecule further displayed an association rate constant (kon) in [5] of 143000 M⁻¹ s⁻¹. In assay [7], the “IC50 of inhibition of BTC-induced ErbB3 phosphorylation (ELISA, ADRr cells)” value is 5.9 nM. The “IC50 of inhibition of HRG1-beta-induced ErbB3 phosphorylation (ELISA, ADRr cells)” value in assay [7] was determined as 2.4 nM. In [8], the “EC50 (read off the curve)” value fell in the range of 1 to 2 nM.

B3: Ab #6, IgG2 isotype (antibody, V domains shown)
VH: EVQLLESGGGLVQPGGSLRLSCAASGFTFSHYVMAWVRQAPGKGLEWVSSISSSGGWTLYADSVKGRFTISRDNSKNTLYLQMNSLRAEDTAVYYCTRGLKMATIFDYWGQGTLVTVSS
VL: QSALTQPASVSGSPGQSITISCTGTSSDVGSYNVVSWYQQHPGKAPKLIIYEVSQRPSGVSNRFSGSKSGNTASLTISGLQTEDEADYYCCSYAGSSIFVIFGGGTKVTVL
notes: Human IgG2; also called IgG2 isotype of Ab #6
For the molecule B3, the binding result (in [12]; with TGF-α (control in ELISA); in assay [13]) was “no binding (tested: 1000 nM)” in each case.

B4: biotinylated heregulin EGF (ligand, UniProt Q02297-6 177-241, looked up)
chain: SHLVKCAEKEKTFCVNGGECFMVKDLSNPSRYLCKCPNEFTGDRCQNYVMASFYKHLGIEFMEAE
modifications: also: biotinylated, site not given here
notes: domain: heregulin EGF
With B4, in assay [14], the binding result is given as “binds”.

B5: Antibody #3 (Ab #3), human anti-ErbB3 antibody (antibody, V domains shown)
VH: EVQLLESGGGLVQPGGSLRLSCAASGFTFSAYNMRWVRQAPGKGLEWVSVIYPSGGATRYADSVKGRFTISRDNSKNTLYLQMNSLRAEDTAVYYCARGYYYYGMDVWGQGTLVTVSS
VL: QSVLTQPPSASGTPGQRVTISCSGSDSNIGRNYIYWYQQFPGTAPKLLIYRNNQRPSGVPDRISGSKSGTSASLAISGLRSEDEAEYHCGTWDDSLSGPVFGGGTKLTVL
B5: the Kd in [15] was around 8 nM; in assay [6], around 1.3 nM. The half-maximal effective concentration (EC50 (read off the curve)) in assay [16] was around 8 nM.

B6: Ab#14 (Fab, V domains shown)
VH: EVQLLESGGGLVQPGGSLRLSCAASGFTFSAYGMGWVRQAPGKGLEWVSYISPSGGHTKYADSVKGRFTISRDNSKNTLYLQMNSLRAEDTAVYYCAKVLETGLLVDAFDIWGQGTMVTVSS
VL: QYELTQPPSVSVYPGQTASITCSGDQLGSKFVSWYQQRPGQSPVLVMYKDKRRPSEIPERFSGSNSGNTATLTISGTQAIDEADYYCQAWDSSTYVFGTGTKVTVL
notes: also called Fab form of Ab #14; MM 121-14
Turning to B6, the binding result in assay [17] is “binds”.
